# Test results: patent US7459439B2, “Granulysin peptides and methods of use thereof” (The Regents of the University of California, priority 2003, dated 2008)
# B1: granulysin: 9 kDa arginine-rich protein, late T cell activation marker, member of saposin-like proteins (protein)
# chain: GRDYRTCLTIVQKLKKMVDKPTQRSVSNAATRVCRTGRSRWRDVCRNFMRRYQSRVIQGLVAGETAQQICEDLR
# modifications: H. sapiens
# What was measured:
# [1] = test system: Propionibacterium acnes; experiment: Killing of / antimicrobial activity against P. acnes; settings: FIG. 1-3
# Text: The susceptibility of a particular microbe or virus to killing or inhibition by granulysins may be determined by in vitro testing, as detailed in the experimental section. Typically a culture of the microbe is combined with granulysins at varying concentrations for a period of time sufficient to allow the protein to act, usually ranging from about one hour to one day. The viable microbes are then counted, and the level of killing determined.
# [2] = test system: TNF-α production by monocytes; experiment: Inhibition of TNF-α production by monocytes; format: cell-based; settings: FIG. 4b
# [3] = test system: IL-12 production by monocytes; experiment: Inhibition of IL-12 production by monocytes; format: cell-based; settings: FIG. 4a
# [4] = test system: M. tuberculosis; settings: cited from earlier work
# [5] = test system: bacterial membranes; settings: Ernst et al. (2000); cited from earlier work
# [6] = test system: bacteria, parasites and fungi; experiment: Range of antimicrobial activity of granulysin; format: cell-based; settings: experiments performed in applicant's laboratory
# Text: Granulysin is a 9 kDa basic (arginine-rich) protein and is a member of a larger group of proteins, referred to as saposin-like proteins (sphingolipid activator protein like protein=SAPLIP). This family has been highly conserved for almost a billion years, from amoebas to humans. […] This family includes NK-lysin, isolated from pig intestines, and amoebapores, used by amoebas to kill bacterial prey. […] We have synthesized a shorter granulysin peptide 20 amino acid in length and tested for antimicrobial activity. Further modification of this peptide was done by substituting a more hydrophobic amino acid residue, tryptophan at position 44, and tested for antimicrobial activity.
molecule,measurement,setting,value
"granulysin peptide #31-50: Synthetic peptide of residues 31-50 of human granulysin, SEQ ID NO:2 (TRVCRTGRSRWRDVCRNFMR) (TRVCRTGRSRWRDVCRNFMR; H. sapiens)",killing of P. acnes / antimicrobial activity against P. acnes,[1],effective at killing P. acnes
granulysin peptide #31-50(W44): Modified 20 amino acid granulysin peptide 31-50 with tryptophan substituted at position 44; probably SEQ ID NO:3 TRVSRTGRSRWRDWSRNFMR,inhibition of TNF-α production by monocytes,[2],able to inhibit
same,inhibition of IL-12 production by monocytes,[3],able to inhibit IL-12
B1,effect on M. tuberculosis by electron microscopy,[4],trigger fluid accumulation in the periplasm of M. tuberculosis
same,alteration of bacterial membranes,[5],"increasing their permeability, inducing lesions on the surface of bacteria and separation of the cell wall and membranes from the cytoplasm"
same,range of antimicrobial activity,[6],"wide range of antimicrobial activity against bacteria, parasites and fungi"
same,killing of P. acnes / antimicrobial activity against P. acnes,[1],effective at killing Propionibacterium acnes
